Data set [1] is described as follows: immunoblot densitometry, Dox-induced Flp-In TREx293. As to conditions: glycan lost; for expression_or_secretion: control: wild type hGPR176; for expression_or_secretion, percent_of_wt: control: wild type. A general note: Immunoblotting shows a protein as a band on a membrane.
Data set [2] is described as follows: confocal GFP imaging with ER-Tracker. The following applies: glycan lost; control: wild type Gpr176-GFP.
The nature of data set [3]: immunoblot after MG132 or bafilomycin A1, 6 h. The following applies: glycan lost; control: wild type Gpr176-GFP.
The nature of data set [4]: immunoblot of PNGase F-treated live cells. The following applies: glycan lost; control: cells without PNGase F.

B1: hGPR176: N-ter mut (N4Q;N11Q;N17Q;N27Q) (protein)
parent chain: MGHNGSWISPNASEPHNASGAEAAGVNRSALGEFGEAQLYRQFTTTVQVVIFIGSLLGNFMVLWSTCRTTVFKSVTNRFIKNLACSGICASLVCVPFDIILSTSPHCCWWIYTMLFCKVVKFLHKVFCSVTILSFPAIALDRYYSVLYPLERKISDAKSRELVMYIWAHAVVASVPVFAVTNVADIYATSTCTEVWSNSLGHLVYVLVYNITTVIVPVVVVFLFLILIRRALSASQKKKVIIAALRTPQNTISIPYASQREAELHATLLSMVMVFILCSVPYATLVVYQTVLNVPDTSVFLLLTAVWLPKVSLLANPVLFLTVNKSVRKCLIGTLVQLHHRYSRRNVVSTGSGMAEASLEPSIRSGSQLLEMFHIGQQQIFKPTEDEEESEAKYIGSADFQAKEIFSTCLEGEQGPQFAPSAPPLSTVDSVSQVAPAAPVEPETFPDKYSLQFGFGPFELPPQWLSETRNSKKRLLPPLGNTPEELIQTKVPKVGRVERKMSRNNKVSIFPKVDS
Regarding B1, in data set [1], the expression_or_secretion result is “decreases”.

B2: hGPR176: S13G (protein)
parent chain: B1 parent chain
As to B2, in data set [1], the expression_or_secretion result was “decreases”.

B3: hGPR176: N4D (protein)
parent chain: B1 parent chain
With B3, the expression_or_secretion entry in data set [1] was “no change”.

B4: hGPR176: N4S (protein)
parent chain: B1 parent chain
As to B4, the expression_or_secretion result in data set [1] was “decreases”.

B5: hGPR176: N17K (protein)
parent chain: B1 parent chain
On to B5, for which, in data set [1], the expression_or_secretion entry is “no change”.

B6: hGPR176: N17T (protein)
parent chain: B1 parent chain
With B6, the expression_or_secretion result in data set [1] is “no change”.

B7: Gpr176: N-ter mut (protein)
parent chain: MGHNSSWVSPNTSHPRNTSGAEAGANLSAFGELSEAQLYRQFTTTVQVVIFIGSLLGNFMVLWSTCRTTVFKSVTNRFIKNLACSGICASVVCVPFDIILSSSPHCCWWIYTMLFCKVLKFLHKVFCSVTVLSFPAIALDRYYSVLYPLERKISDAKSRELVMYIWAHAVVASVPVFAVTNVADIYAMSTCTEVWSNSLGHLVYVLIYNVTTVIVPVAVVFLFLILIRRALSASQKKKVIIAALRTPQNTISIPYASQREAELHATLLSMVTVFILCSVPYATLVVYQTVLNVPNTSVFLLLTAIWLPKVSLLANPVLFLTVNKSVRKCLVGTLVQLHHRYSRRNVVSTGSGVAEPSLEPSMRSGSQLLEMFHIGQQQIFKPSEDEEESEAKYLGSADFQAKEVLTSCPEGEQEPPQLAPSVPPPGTVDSEPRVSPVAPMESGIFPDKYSLQFGFGPFELPPQWLSETRNSKKRLLPPLGNTPEELIQTKVPRVNRVERKMSRNNKVSIFPKVDS
As to B7, the “expression_or_secretion, percent_of_wt” value in data set [1] is given as “decreases”. In data set [2], the localisation_or_trafficking entry is “changes”. The degradation_or_half_life result in data set [3] is given as “decreases”.

B8: Gpr176: PNGase F (protein)
parent chain: B7 parent chain
As for B8, in data set [4], the expression_or_secretion result is reported as “no change”.

B9: Gpr176: N-ter/ECL3 (protein)
parent chain: B7 parent chain
In the case of B9, in data set [1], the “expression_or_secretion, percent_of_wt” value is reported as “decreases”.

Source of the values: paper PMC7064540.
